The target of this experiment is RANKL of the osteoclast differentiation medium (UniProt O35235).
UniProt O35235, sequence (O35235 whole entry): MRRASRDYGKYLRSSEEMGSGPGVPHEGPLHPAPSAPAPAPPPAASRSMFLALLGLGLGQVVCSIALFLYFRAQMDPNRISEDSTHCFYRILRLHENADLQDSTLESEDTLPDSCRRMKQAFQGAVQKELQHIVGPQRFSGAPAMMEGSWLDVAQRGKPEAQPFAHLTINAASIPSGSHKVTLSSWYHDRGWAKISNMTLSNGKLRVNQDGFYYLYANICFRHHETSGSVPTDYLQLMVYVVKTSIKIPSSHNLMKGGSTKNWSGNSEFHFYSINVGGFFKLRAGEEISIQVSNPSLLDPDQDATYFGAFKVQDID

B1: recombinant mouse OMD (natural protein)
chain: QYEAYRWDDDYDQEPNEDYDPEFQFHQNIEYGVPFYNNILGCAKECFCPTNFPTSMYCDNRKLKTIPIIPMHIQQLNLQFNDIEAVTANSFINATHLKEINLSHNKIKSQKIDYGVFAKLSNLQQLHLEHNNLEEFPFPLPKSLERLLLGYNEISILPTNAMDGLVNVTMLDLCYNHLSDSMLKEKTLSKMEKLMQLNLCNNRLESMPLGLPSSLMYLSLENNSISSIPDNYFDKLPKLHALRISHNKLEDIPYDIFNLSNLIELNVGHNKLKQAFYIPRNLEHLYLQNNEIESINVTMICPSPDPVHHHHLTYLRVDQNKLKEPISSYIFFCFPRIHSIYYGEQRSTNGETIQLKTQVFRSYQEEEEEDDHDSQDNTLEGQEVSDEHYNSHYYEMQEWQDTI
On to B1, for which the osteoclast number (TRAP staining after 4 days) in primary murine osteoclast culture differentiated with M-CSF and RANKL; OMD at 10 and 40 ng/mL preincubated with RANKL and M-CSF (% reduction of osteoclast number) is 50.

The record behind these values is article PMC10511717.
